Measurements as given in patent publication US11780907B2, “Human antibodies to influenza hemagglutinin” (Regeneron Pharmaceuticals, Inc., priority 2018, dated 2023).
Where a chain is given by its changes, count along the chain named. “Also recorded” adds a separate entry of the source. Read-outs that look alike come from different tables or passages of the source.

Legend:
[1] = tested on: A/Aichi/02/1968-X31 (H3N2); parameters: species or system BALB/c mice; details: mouse, in vivo
[2] = target: A/Hiroshima/52/2005 (H3) HA foldon protein; format: binding, influenza A virus
[3] = target: A/Shanghai/01/2013 (H7) HA foldon protein; format: binding, influenza A virus; details: 37° C.
group 1 strains (HA) = format: binding, influenza A virus
[4] = tested on: A/Victoria/316/2011 (H3N2); format: cell-based, influenza A virus
[5] = tested on: A/Aichi/02/1968-PR8-X31(H3N2)-infected MDCKs; format: cell-based, canine
[6] = tested on: A/Aichi/02/1968-X31 (H3N2); parameters: species or system BALB/c mice; details: mouse, in vivo, iv, 15 mg/kg
[7] = tested on: A/Aichi/02/1968-PR8-X31 (H3N2); format: cell-based, influenza A virus; details: read-out: Neutralization activity IC50
[8] = tested on: A/Philippines/01/1982 (H3N2); format: cell-based, influenza A virus; details: read-out: Neutralization activity IC50
[9] = tested on: A/Shanghai/01/2013-PR8 (H7N9); format: cell-based, influenza A virus; details: read-out: Neutralization activity IC50

## CCOC(=O)C1=C[C@@H](OC(CC)CC)[C@H](NC(C)=O)[C@@H](N)C1 [oseltamivir, reference compound]
[1]
  survival: 80%

B1: H1H14611N2: fully human anti-influenza A group 2 HA monoclonal antibody, HCVR/LCVR SEQ ID NOs: 2/10 (antibody, V domains shown)
VH: EVQLVESGGGLVKPGGSLRLSCAASGFTFSGFSMNWVRQVPGKGLEWVSSISTSGNYMYYADSVKGRFTISRDNAKKSFSLQMNSLRAEDSAIYYCARGGGYNWNLFDYWGQGSLVTVSS
VL: EIVLTQSPGTLSLSPGERATLSCRASQSLNSNYLAWYQQKPGQAPRLLIYGASSRATGIPDRFSGSGSGTDFTLTITRLESEDFAVYYCQQYGNSPLTFGGGTKVEIK
[2]
  Kd: 8.22 nM
[3]
  KD: IC^§
Group 1 strains (HA)
  binding to group 1 strains: did not bind
[4]
  lowest concentration of mAb where no RBC hemagglutination was detected: 41.7 nM
[5]
  maximum lysis (percent specific lysis): 78.3%
[6]
  survival: One hundred percent survival; also recorded: survived; also recorded: complete protection
[1]
  effect when dosed in combination with oseltamivir: additive protective effect; also recorded: additive efficacy
[1]; 7 mg/kg
  survival: 80%
[1]; 15 mg/kg
  survival: 100%

B2: H1H14612N2: fully human anti-influenza A group 2 HA monoclonal antibody, HCVR/LCVR SEQ ID NOs: 18/26 (antibody, V domains shown)
VH: B1 VH with T28S, V40A
VL: B1 VL with T70A, T77S
[7]
  IC50: 5.7 nM
[8]
  IC50: 37.6 nM
[9]
  IC50: > 6670 nM
[4]
  lowest concentration of mAb where no RBC hemagglutination was detected: 166.7 nM
[5]
  maximum lysis (percent specific lysis): 86.3%
[5]; read-out: CDC EC50
  EC50: 126 nM
[6]
  survival: One hundred percent survival; also recorded: survived; also recorded: complete protection
